Numbering of substitutions follows the chain as printed.
What was measured:
Experiment in all cases: single-molecule magnetic tweezers
[1] = target: T1, Full-length vinculin (FL-vinculin) (UniProt P18206-2 1-1066)
T1 sequence (looked up): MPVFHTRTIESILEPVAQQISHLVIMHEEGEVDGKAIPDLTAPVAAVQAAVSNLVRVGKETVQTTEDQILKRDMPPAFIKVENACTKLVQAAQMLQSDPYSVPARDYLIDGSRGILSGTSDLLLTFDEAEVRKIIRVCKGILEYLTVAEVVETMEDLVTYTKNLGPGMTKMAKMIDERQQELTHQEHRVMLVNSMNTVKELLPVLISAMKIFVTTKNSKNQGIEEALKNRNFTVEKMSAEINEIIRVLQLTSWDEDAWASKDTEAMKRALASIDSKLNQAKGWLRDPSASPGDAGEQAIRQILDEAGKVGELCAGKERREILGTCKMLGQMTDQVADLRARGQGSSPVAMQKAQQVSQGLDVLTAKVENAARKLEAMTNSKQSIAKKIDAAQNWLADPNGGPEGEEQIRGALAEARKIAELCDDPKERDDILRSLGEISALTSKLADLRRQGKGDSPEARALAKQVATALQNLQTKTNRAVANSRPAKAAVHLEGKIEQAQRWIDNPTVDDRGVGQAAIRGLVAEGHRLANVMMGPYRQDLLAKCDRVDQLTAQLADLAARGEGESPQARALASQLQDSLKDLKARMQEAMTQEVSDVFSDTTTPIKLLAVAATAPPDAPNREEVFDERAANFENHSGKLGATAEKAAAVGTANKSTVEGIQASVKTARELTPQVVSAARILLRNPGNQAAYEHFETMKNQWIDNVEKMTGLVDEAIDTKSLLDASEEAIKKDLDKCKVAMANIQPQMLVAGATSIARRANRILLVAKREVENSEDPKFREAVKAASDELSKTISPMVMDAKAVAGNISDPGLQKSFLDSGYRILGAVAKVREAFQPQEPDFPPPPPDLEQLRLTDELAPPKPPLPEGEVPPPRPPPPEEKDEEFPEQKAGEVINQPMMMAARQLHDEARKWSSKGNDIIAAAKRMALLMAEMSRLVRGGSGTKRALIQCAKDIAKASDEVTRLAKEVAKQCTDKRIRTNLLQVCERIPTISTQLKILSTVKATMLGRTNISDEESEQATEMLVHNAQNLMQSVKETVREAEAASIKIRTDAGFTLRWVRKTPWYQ

[2] = target: T2, vinculin T12 mutant (UniProt P18206-2 1-1066, D974A | K975A | R976A | R978A)
T2 sequence (looked up): T1 sequence (looked up) with D974A, K975A, R976A, R978A

[3] = target: T3, vinculin head (D1-D4) (UniProt P18206-2 1-835)
T3 sequence (looked up): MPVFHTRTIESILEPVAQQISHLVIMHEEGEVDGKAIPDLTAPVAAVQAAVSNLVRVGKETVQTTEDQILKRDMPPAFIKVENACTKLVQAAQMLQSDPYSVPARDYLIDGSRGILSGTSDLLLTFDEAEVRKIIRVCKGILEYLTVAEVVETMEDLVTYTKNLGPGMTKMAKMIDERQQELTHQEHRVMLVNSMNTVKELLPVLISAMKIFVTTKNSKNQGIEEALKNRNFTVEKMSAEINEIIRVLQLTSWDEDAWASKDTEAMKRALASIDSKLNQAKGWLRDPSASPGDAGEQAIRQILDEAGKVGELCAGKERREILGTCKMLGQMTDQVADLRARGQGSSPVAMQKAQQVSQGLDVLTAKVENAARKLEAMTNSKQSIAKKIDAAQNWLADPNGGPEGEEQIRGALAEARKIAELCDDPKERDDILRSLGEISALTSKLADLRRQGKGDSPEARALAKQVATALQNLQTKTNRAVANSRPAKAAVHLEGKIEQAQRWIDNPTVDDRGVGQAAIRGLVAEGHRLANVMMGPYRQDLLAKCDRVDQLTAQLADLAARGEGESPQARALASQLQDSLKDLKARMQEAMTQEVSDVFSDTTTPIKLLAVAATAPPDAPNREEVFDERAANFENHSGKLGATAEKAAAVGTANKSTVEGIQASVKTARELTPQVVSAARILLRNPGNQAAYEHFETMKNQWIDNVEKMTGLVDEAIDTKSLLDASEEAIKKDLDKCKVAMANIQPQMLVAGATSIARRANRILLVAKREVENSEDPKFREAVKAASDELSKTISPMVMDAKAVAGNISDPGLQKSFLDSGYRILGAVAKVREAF

B1: talin R4-R6 domains (stretchable talin R4-R6 fragment) (domain or fragment, UniProt P26039 913-1357, looked up)
chain: LVQRLEHAAKQAAASATQTIAAAQHAASAPKASAGPQPLLVQSCKAVAEQIPLLVQGVRGSQAQPDSPSAQLALIAASQSFLQPGGKMVAAAKASVPTIQDQASAMQLSQCAKNLGTALAELRTAAQKAQEACGPLEMDSALSVVQNLEKDLQEIKAAARDGKLKPLPGETMEKCTQDLGNSTKAVSSAIAKLLGEIAQGNENYAGIAARDVAGGLRSLAQAARGVAALTSDPAVQAIVLDTASDVLDKASSLIEEAKKASGHPGDPESQQRLAQVAKAVTQALNRCVSCLPGQRDVDNALRAVGDASKRLLSDSLPPSTGTFQEAQSRLNEAAAGLNQAATELVQASRGTPQDLARASGRFGQDFSTFLEAGVEMAGQAPSQEDRAQVVSNLKGISMSSSKLLLAAKALSTDPASPNLKSQLAAAARAVTDSINQLITMCTQQA
modifications: N-terminus linked to a superparamagnetic bead through a 572-bp double strand DNA linker
Question: For B1, which koff [1] is on record?
Answer: 0.014 s⁻¹

Question: And the kon [1]?
Answer: 1e+06 M⁻¹ s⁻¹

Question: What about the Kd [2] of the same binder?
Answer: 1.9 nM

Question: What about the koff [2] of the same binder?
Answer: 0.021 s⁻¹

Question: And the kon [2]?
Answer: 1.1e+07 M⁻¹ s⁻¹

Question: And the Kd [3]?
Answer: 0.6 nM

Question: And the koff [3]?
Answer: 0.0022 s⁻¹

Question: What about the kon [3] of the same binder?
Answer: 3.7e+06 M⁻¹ s⁻¹

— doi:10.1101/2021.04.26.441533 (bioRxiv, 2021)
